Measurements taken from PMC5674511, “Increase of enzyme activity through specific covalent modification with fragments” (Chemical Science, 2017).

Experiments:
[1] = tested on: T1, CC(=O)N[C@H]1[C@H](Oc2ccc3c(C)cc(=O)oc3c2)O[C@H](CO)[C@@H](O)[C@@H]1O; assay: fluorescence, 4MU release, Michaelis-Menten; type: biochemical, Bacteroides thetaiotaomicron; details: unmodified BtGH84_TM (no tethered fragment)
T1 construct: recombinant purified enzyme
Text: fluorescence, 4MU release, Michaelis-Menten on BtGH84

[2] = tested on: T1, CC(=O)N[C@H]1[C@H](Oc2ccc3c(C)cc(=O)oc3c2)O[C@H](CO)[C@@H](O)[C@@H]1O; assay: fluorescence, 4MU release, Michaelis-Menten; type: biochemical, Bacteroides thetaiotaomicron

“BtGH84 (Bacteroides thetaiotaomicron VPI-5482; C441S/C675S/Y571C)” gave a Km [1] of 4.68 ± 0.22 mM, a kcat [1] of 127 ± 6 s⁻¹ and a kcat/Km [1] of 27200 ± 2460 M⁻¹ s⁻¹.

For “BtGH84 (Bacteroides thetaiotaomicron VPI-5482; Y158F)”, the Km ([2]; unmodified BtGH84_Y137F) was 6.61 ± 1.282 mM and the kcat ([2]; unmodified BtGH84_Y137F) was 87 ± 4 s⁻¹.

“BtGH84 (Bacteroides thetaiotaomicron VPI-5482; C441S/C675S/Y158F/Y571C)” showed a Km ([2]; unmodified BtGH84_QM) of 11.215 ± 3.274 mM and a kcat ([2]; unmodified BtGH84_QM) of 77 ± 15 s⁻¹.
